PMC3150276

Target: MogR, full-length (transcriptional repressor of flagellar motility genes) (Listeria monocytogenes)
Sequence (G2K449 whole entry): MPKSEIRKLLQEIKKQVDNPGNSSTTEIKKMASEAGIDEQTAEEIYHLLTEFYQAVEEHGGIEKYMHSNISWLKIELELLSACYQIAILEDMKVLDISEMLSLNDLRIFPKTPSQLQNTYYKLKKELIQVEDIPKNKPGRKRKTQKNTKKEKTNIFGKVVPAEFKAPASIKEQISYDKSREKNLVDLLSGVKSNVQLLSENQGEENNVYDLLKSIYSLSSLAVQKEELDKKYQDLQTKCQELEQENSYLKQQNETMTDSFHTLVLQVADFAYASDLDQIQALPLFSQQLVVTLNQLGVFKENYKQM

## GmaR, full-length (bifunctional flagellar anti-repressor/glycosyltransferase) (natural protein)
  gel mobility shift at 37°C: amount of purified GmaR-His6 needed to decrease shifted MogR-His6:DNA complexes as at 30°C: > 2 fold
